{"source": "paper PMC6413200", "target": "pGE-LysRS-6xhis-SPARC fusion protein (not stated | Clonorchis sinensis)", "assay": "SEC; Ni-affinity fractions on a Superdex 200 Increase 10/300 GL or a Superose 6 Increase 10/300 column; 50 mM Tris-Cl (pH 7.5), 300 mM NaCl; 0.3 mL/min; molecular weight estimated from elution; samples from sonication and from mild lysis"}
{"substance": "pGE-LysRS-6xhis-SPARC fusion protein", "values": [{"measurement": "stoichiometry N", "value": 2}]}
